Here are results for 6 variants from publication PMC11077774.

B1: full-length GTP-bound Rab6a/Q72L with N-terminal GST tag [human] / BicD2-CTD (C-terminal cargo-binding domain of human Bicaudal D2, residues 715-804) [human] (parent)
chain 1: YENEKAMVTETMMKLRNELKALKEDAATFSSLRAMFATRCDEYITQLDEMQRQLAAAEDEKKTLNSLLRMAIQQKLALTQRLELLELDHE
chain 2: MSTGGDFGNPLRKFKLVFLGEQSVGKTSLITRFMYDSFDNTYQATIGIDFLSKTMYLEDRTVRLQLWDTAGLERFRSLIPSYIRDSTVAVVVYDITNVNSFQQTTKWIDDVRTERGSDVIIMLVGNKTDLADKRQVSIEEGERKAKELNVMFIETSAKAGYNVKQLFRRVAAALPGMESTQDRSREDMIDIKLEKPQEQPVSEGGCSC

In the assay the parent is B1. In words: GST pull-down, SDS-PAGE band quantification. The settings on record: with BicD2-CTD (C-terminal cargo-binding domain of human Bicaudal D2, residues 715-804) [human]; parent: 1; read off a plot.
For chain 2 Q22A, the ratio to parent was determined as 0.97. Then chain 2 T45A, with 0.01; and chain 2 S23A, with 0.96; and chain 2 T69A, with 0.07. chain 2 F38A: the ratio to parent came out at 0.01.

For the variant chain 2 W67A, the ratio to parent was 0.09.
